EC50 data for one molecule are collected here from patent US20110142830A1.

The target in this test is sSortilin, Q99523. As to the kind of experiment: SPR. The conditions noted are these: modification not given.
Chain of sSortilin, Q99523 (Q99523 78-755): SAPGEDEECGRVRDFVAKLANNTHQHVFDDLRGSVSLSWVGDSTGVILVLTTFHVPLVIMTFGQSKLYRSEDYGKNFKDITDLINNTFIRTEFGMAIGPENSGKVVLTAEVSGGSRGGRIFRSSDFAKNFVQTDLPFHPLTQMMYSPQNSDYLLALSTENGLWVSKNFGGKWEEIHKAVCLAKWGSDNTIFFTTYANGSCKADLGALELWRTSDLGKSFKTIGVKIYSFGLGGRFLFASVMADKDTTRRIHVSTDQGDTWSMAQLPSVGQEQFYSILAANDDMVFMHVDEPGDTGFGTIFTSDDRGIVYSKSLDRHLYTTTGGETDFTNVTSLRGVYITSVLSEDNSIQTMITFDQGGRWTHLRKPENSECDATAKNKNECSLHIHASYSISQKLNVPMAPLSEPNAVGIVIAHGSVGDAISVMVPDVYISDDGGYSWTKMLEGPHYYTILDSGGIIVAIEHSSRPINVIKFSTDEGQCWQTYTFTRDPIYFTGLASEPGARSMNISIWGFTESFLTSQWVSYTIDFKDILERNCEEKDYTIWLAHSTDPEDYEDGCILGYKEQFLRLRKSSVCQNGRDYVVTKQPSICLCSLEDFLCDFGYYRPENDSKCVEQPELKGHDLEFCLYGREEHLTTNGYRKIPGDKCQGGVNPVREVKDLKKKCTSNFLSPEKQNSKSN

For the molecule RRPYIL [NT8-13], the EC50 (as a rule, the concentration that produces a half-maximal response) stood at 460 nM.
